In publication PMC6330322:

Columns and labels:
[1] = target: NrnC from Agrobacterium tumefaciens (Agrobacterium tumefaciens str. C58); test: SEC; Superdex 200, 25 mM Tris-HCl pH 8.0, 100 mM NaCl; calibrated with Ec_RND, Tle1, conalbumin and aldolase; self-association, octamer
[2] = target: NrnC from Agrobacterium tumefaciens (Agrobacterium tumefaciens str. C58); test: AUC; sedimentation velocity, 1 mg/mL At_NrnC in 25 mM Tris-HCl pH 8.0, 100 mM NaCl, without or with 5 mM MnCl2, 60,000 rpm, 20°C, Sedfit; self-association, octamer
[3] = target: NrnC from Agrobacterium tumefaciens (Agrobacterium tumefaciens str. C58); test: crystal structure; apo and Mn2+-soaked crystals, space group I422, two protomers in the asymmetric unit; octamer from crystal packing, interfaces analysed with PISA

stoichiometry N [1]: 8
stoichiometry N [2]: 8
stoichiometry N [3]: 8
Substance: NrnC from Agrobacterium tumefaciens (enzyme)
